In patent US20240025971A1:

How the values were obtained:
Test in all cases: cell-based or functional assay
[1] = molecular target: SARS-CoV-2 Delta-plus (B.1.617.2.1) full-length Spike protein (SARS-CoV-2) (UniProt P0DTC2)
[2] = molecular target: SARS-CoV-2 Epsilon (B.1.427/9) full-length Spike protein (SARS-CoV-2) (UniProt P0DTC2)
[3] = molecular target: SARS-CoV-2 Delta (B.1.617.2) full-length Spike protein (SARS-CoV-2) (UniProt P0DTC2)
[4] = molecular target: SARS-CoV-2 Beta (B.1.351) full-length Spike protein (SARS-CoV-2) (UniProt P0DTC2)
[5] = molecular target: SARS-CoV-2 Alpha (B.1.1.7) full-length Spike protein (SARS-CoV-2) (UniProt P0DTC2)
[6] = molecular target: SARS-CoV-2 Gamma (P.1.B.1.1.28) full-length Spike protein (SARS-CoV-2) (UniProt P0DTC2)

Measured: Pseudovirus Neutralization

Anti-Nucleocapsid (Neg Control) (antibody)
> 50 µg/mL: all assays above
